In this series the target is recombinant SF2/ASF (Protein One) (UniProt Q07955).
recombinant SF2/ASF (Protein One), sequence (Q07955 whole entry): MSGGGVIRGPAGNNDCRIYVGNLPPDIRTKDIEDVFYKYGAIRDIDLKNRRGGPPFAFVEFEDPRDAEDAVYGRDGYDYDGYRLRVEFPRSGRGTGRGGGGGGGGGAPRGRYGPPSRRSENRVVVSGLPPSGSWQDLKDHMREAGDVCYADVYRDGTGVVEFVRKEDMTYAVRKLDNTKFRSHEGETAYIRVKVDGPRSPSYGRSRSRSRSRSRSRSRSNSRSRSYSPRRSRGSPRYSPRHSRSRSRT

Clk1 (Cdc2-like kinase), endogenous, from human platelets, sequence (chain, as listed by the source): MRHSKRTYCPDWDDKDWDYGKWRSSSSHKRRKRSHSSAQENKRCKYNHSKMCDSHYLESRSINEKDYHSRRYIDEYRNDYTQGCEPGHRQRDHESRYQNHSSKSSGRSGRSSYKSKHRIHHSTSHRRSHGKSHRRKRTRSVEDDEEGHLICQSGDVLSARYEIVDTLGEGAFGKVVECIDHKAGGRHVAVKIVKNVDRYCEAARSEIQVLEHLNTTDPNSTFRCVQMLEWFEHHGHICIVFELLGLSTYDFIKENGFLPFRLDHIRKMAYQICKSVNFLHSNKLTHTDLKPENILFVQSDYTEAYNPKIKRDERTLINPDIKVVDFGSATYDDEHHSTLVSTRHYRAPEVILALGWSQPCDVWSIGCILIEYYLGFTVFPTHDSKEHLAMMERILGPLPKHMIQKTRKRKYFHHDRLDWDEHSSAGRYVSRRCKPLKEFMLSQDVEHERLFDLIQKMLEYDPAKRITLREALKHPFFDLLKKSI

With “Clk1 (Cdc2-like kinase), endogenous, from human platelets”, the “SF2/ASF phosphorylation (immune complex kinase assay)” value was “Clk1 from activated platelets (grown on immobilized fibrinogen in the presence of thrombin for 30 minutes) markedly increased SF2/ASF phosphorylation”.

The values above are taken from patent US20090042869.
